Results: patent publication US20240067729A1

Legend:
[1] = target: cynomolgus PD-L1, his tagged (cPD-L1-his) (cynomolgus (Macaca fascicularis)) (UniProt G7PSE7); experiment: ELISA on coated cPD-L1-his, negative control
[2] = target: human PD-L1, his tagged (hPD-L1-his) (human) (UniProt Q9NZQ7); experiment: ELISA on coated hPD-L1-his, negative control
[3] = target: human PD-L1 Fc fusion (hPD-L1-Fc) (human) (UniProt Q9NZQ7); experiment: blocking ELISA: residual biotin-hPD-1-Fc signal on coated hPD-L1-Fc, negative control
human PD-L1 Fc fusion (hPD-L1-Fc) (human), sequence (Q9NZQ7 19-238 limits assumed): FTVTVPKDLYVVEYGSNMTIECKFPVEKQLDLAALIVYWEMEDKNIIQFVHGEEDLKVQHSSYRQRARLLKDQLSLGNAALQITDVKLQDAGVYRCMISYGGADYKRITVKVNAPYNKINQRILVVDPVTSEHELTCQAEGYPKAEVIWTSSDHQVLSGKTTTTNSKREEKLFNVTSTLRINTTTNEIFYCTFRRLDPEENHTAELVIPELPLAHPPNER

cynomolgus PD-L1, his tagged (cPD-L1-his) (cynomolgus (Macaca fascicularis)), sequence (G7PSE7 entry or part of it limits assumed, form in doubt): as the sequence (Q9NZQ7 19-238 limits assumed) above, with A33T, A34S, S62N, R68Q, Q82R, F173L, T185A, T192I, H215L counted along it
human PD-L1, his tagged (hPD-L1-his) (human), sequence (Q9NZQ7 19-238 limits assumed): as the sequence (Q9NZQ7 19-238 limits assumed) above

In the case of “NEG (negative control of the hybridoma supernatant screen)”, the A450 [1] was 0.0348 A450, the A450 [2] was 0.034 A450 and the Block Residual % [3] was 60%.
